Laboratory results published in paper PMC4820727.

Key:
Experiment in all cases: flow cytometry on cells; Adh adhesion to 293T cells displaying the candidate protein from pDisplay; adhesion rate compared with the control group
[1] = target: CARD displayed on the surface of 293T cells (pDisplay) (pig (protein identified from porcine alveolar macrophages; source of the cDNA not stated))
[2] = target: RAB14 displayed on the surface of 293T cells (pDisplay) (pig (protein identified from porcine alveolar macrophages; source of the cDNA not stated)) (UniProt Q52NJ6)
[3] = target: RAB1B displayed on the surface of 293T cells (pDisplay) (pig (protein identified from porcine alveolar macrophages; source of the cDNA not stated)) (UniProt Q06AU7)
[4] = target: OR5M11 displayed on the surface of 293T cells (pDisplay) (pig (protein identified from porcine alveolar macrophages; source of the cDNA not stated))

Measured: fold increase of the adhesion rate over the control group

Sequence of UniProt Q52NJ6 (Q52NJ6 whole entry): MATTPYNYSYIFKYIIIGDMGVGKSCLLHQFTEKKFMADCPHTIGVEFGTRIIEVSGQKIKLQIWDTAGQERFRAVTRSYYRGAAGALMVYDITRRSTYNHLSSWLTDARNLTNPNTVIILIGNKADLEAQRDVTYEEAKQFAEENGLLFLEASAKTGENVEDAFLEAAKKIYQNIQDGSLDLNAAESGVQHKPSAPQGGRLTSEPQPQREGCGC
Sequence of UniProt Q06AU7 (Q06AU7 whole entry): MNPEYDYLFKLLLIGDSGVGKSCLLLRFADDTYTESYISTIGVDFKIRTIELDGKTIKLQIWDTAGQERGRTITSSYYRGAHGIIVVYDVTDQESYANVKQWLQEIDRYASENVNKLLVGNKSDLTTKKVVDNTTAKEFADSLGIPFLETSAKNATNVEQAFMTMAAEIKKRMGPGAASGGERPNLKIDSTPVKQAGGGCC

Adh, the 68-612 aa head domain of the trimeric autotransporter adhesin Apa1 of Actinobacillus pleuropneumoniae (domain or fragment)
> 3 fold: all assays above
